{"source": "paper PMC5278347", "about": "“Identification and Characterization of a Plastidic Adenine Nucleotide Uniporter (OsBT1-3) Required for Chloroplast Development in the Early Leaf Stage of Rice” (Scientific Reports, 2017)", "molecules": {"B1": {"name": "OsBT1-3 (Oryza sativa Japonica Group) (protein)", "chain": "MAATMVAMSAKSKNSVLTLEKKQGWSVPQLPELRFPWDLHEDKGFSLSLHGSASPHGGLFASVGLKVSTAAPAVAPSPAEHDFKIPFADHCIKYVSSAVGYQVPGTEAESVNEEEVVDGKAVKKAKKRGLKLKIKIGNPHLRRLVSGAVAGAVSRTCVAPLETIRTHLMVGSNGDSMTEVFQSIMKTEGWTGLFRGNFVNVIRVAPSKAIELFAFDTAKKFLTPKADESPKTPFPPSLIAGALAGVSSTLCTYPLELIKTRLTIEKDVYNNFLHAFVKILREEGPSELYRGLTPSLIGVVPYAATNYYAYDTLKKLYRKTFKQEEISNIATLLIGSAAGAISSTATFPLEVARKQMQVGAVGGRQVYKNVFHALYCIMENEGIGGLYKGLGPSCIKLMPAAGISFMCYEACKKILVEDDQDSE", "notes": "E. coli Rosetta(DE3)pLysS, intact cells; antibody peptide VPGTEAESVNEEEVVDGK"}}, "key": {"OsBT1-3": {"molecular_target": "T1, OsBT1-3 (Oryza sativa, UniProt A0A0P0WYD6)", "T1 construct": "gene Os06g0602700; E. coli Rosetta(DE3)pLysS, intact cells; antibody peptide VPGTEAESVNEEEVVDGK", "T1 sequence (A0A0P0WYD6 1-423)": "B1 chain", "assay": "inhibition of [α^32P]-ATP uptake into E. coli cells", "assay_type": "cell-based", "settings": "2000 µM; 2 mM PLP; lysozyme-treated cells; ATP printed as 50 mM (probably μM)"}, "[1]": {"substrate": "Nc1ncnc2c1ncn2[C@@H]1O[C@H](COP(=O)(O)O)[C@@H](O)[C@H]1O", "assay": "cells, lysate or membranes", "assay_type": "cell-based, Oryza sativa", "settings": "labelled compound ([^14C]-AMP); 0 to 900 μM; IPTG-induced cells, non-induced background subtracted"}, "[2]": {"substrate": "Nc1ncnc2c1ncn2[C@@H]1O[C@H](COP(=O)(O)OP(=O)(O)O)[C@@H](O)[C@H]1O", "assay": "cells, lysate or membranes", "assay_type": "cell-based, Oryza sativa", "settings": "labelled compound ([α^32P]-ADP); 0 to 900 μM; IPTG-induced cells, non-induced background subtracted"}, "[3]": {"substrate": "Nc1ncnc2c1ncn2[C@@H]1O[C@H](COP(=O)(O)OP(=O)(O)OP(=O)(O)O)[C@@H](O)[C@H]1O", "assay": "cells, lysate or membranes", "assay_type": "cell-based, Oryza sativa", "settings": "labelled compound ([α^32P]-ATP); 0 to 900 μM; IPTG-induced cells, non-induced background subtracted"}}, "data": [{"molecule": "Cc1ncc(COP(=O)(O)O)c(C=O)c1O", "note": "[PLP]", "values": [{"measurement": "Transport Rate (%)", "setting": "OsBT1-3", "value": "27.4 ± 1.9", "unit": "%"}]}, {"molecule": "B1", "values": [{"measurement": "Km", "setting": "[1]", "value": "106.1 ± 3.45", "unit": "µM"}, {"measurement": "Km", "setting": "[2]", "value": "101.7 ± 7.62", "unit": "µM"}, {"measurement": "Km", "setting": "[3]", "value": "83.5 ± 2.74", "unit": "µM"}]}]}
